Measurements published in paper PMC5750235, “Trapping IgE in a closed conformation by mimicking CD23 binding prevents and disrupts FcεRI interaction” (Nature Communications, 2018).

Experiments:
[1] = molecular target: the molecule itself; assay: crystal structure; 026 sdab:IgE Fc complex, 5 mg/ml in 20 mM HEPES, 50 mM NaCl, pH 7.2; sitting drops, 0.1 M imidazole pH 7.0, 11-12% PEG 20,000; 3.4 Å
[2] = molecular target: T1, IgE Fc Cε3–4 fragment (human, UniProt P01854, (N-acetylglucosamine)2(mannose)5 hepta-saccharide on N394); assay: as above; conditions: both partners purified
T1 construct: human IgE heavy chain constant region, domains Cε3 and Cε4, as found in the crystals; Not a designed construct: the crystals held this fragment and not the Cε2–4 that was expected; also called IgE Cε3–4; source: HEK-293; a small fraction in the purified IgE Fc Cε2–4 preparation, crystallized with 026 sdab

| Binder | binding result [1] | stoichiometry N [2] |
| --- | --- | --- |
| IgE Fc Cε3–4 fragment (domain or fragment, human, (N-acetylglucosamine)2(mannose)5 hepta-saccharide on N394, human IgE heavy chain constant region, domains Cε3 and Cε4, as found in the crystals; Not a designed construct: the crystals held this fragment and not the Cε2–4 that was expected; also called IgE Cε3–4; source: HEK-293; a small fraction in the purified IgE Fc Cε2–4 preparation, crystallized with 026 sdab) RGVSAYLSRPSPFDLFIRKSPTITCLVVDLAPSKGTVNLTWSRASGKPVNHSTRKEEKQRNGTLTVTSTLPVGTRDWIEGETYQCRVTHPHLPRALMRSTTKTSGPRAAPEVYAFATPEWPGSRDKRTLACLIQNFMPEDISVQWLHNEVQLPDARHSTTQPRKTKGSGFFVFSRLEVTRAEWEQKDEFICRAVHEAASPSQTVQRAVSVNP | binds |  |
| 026 sdab (VHH, llama-derived, humanized single-domain antibody; Synthetic gene; also called sdab 026; anti-IgE sdab 026) VHH: EVQLLESGGGLVQPGGSLRLSCAASGFTFGNYDMAWVRQAPGKRPEWVSSIDTGGDITHYADSVKGRFTISRDNAKNTLYLQMNSLRPEDTAVYWCATDEEYALGPNEFDYYGQGTLVTVSS |  | 2 sdab per IgE Fc |
